Data published in the RNAGym collection of RNA variant scans (doi:10.1021/acssynbio.7b00057).

B1: Pistol ribozyme (parent)
chain: GGGUCGUUGUUCCAUAAUCGCGUGGAUAUGGCACGCAAGUUUCUACCGGGCACCGUAAAUGUCCGACUGGAGCCGUUCGGGCGGCUAUAAACAGACCUCAGGCCCGAAGCGUGGCGGCACCUGCCGCCGGUGGUAAAAAAGAUCGGAAGAGCACACGUCU

Variants of: B1
Test: aptazyme ON/OFF ratio, guanine; higher = stronger switching; co-transcriptional cleavage with and without guanine

Row | Variant | aptazyme ON/OFF ratio
1 | GGGUCGACUUAUCAUAAUCGCGUGGAUAUGGCACGCAAGUUUCUACCGGGCACCGUAAAUGUCCGACUGGAGCCGUUCGGGCGGCUAUAAACAGACCUCAGGCCCGAAGCGUGGCGGCACCUGCCGCCGGUGGUAAAAAAGAUCGGAAGAGCACACGUCU [U7A U8C G9U U11A C12U] | 1.28
2 | GGGUCGACUUAGCAUAAUCGCGUGGAUAUGGCACGCAAGUUUCUACCGGGCACCGUAAAUGUCCGACUGGAGCCGUUCGGGCGGCUAUAAACAGACCUCAGGCCCGAAGCGUGGCGGCACCUGCCGCCGGUGGUAAAAAAGAUCGGAAGAGCACACGUCU [U7A U8C G9U U11A C12G] | 1.23
3 | GGGUCGACUUGGCAUAAUCGCGUGGAUAUGGCACGCAAGUUUCUACCGGGCACCGUAAAUGUCCGACUGGAGCCGUUCGGGCGGCUAUAAACAGACCUCAGGCCCGAAGCGUGGCGGCACCUGCCGCCGGUGGUAAAAAAGAUCGGAAGAGCACACGUCU [U7A U8C G9U U11G C12G] | 1.16
4 | GGGUCGACUUGACAUAAUCGCGUGGAUAUGGCACGCAAGUUUCUACCGGGCACCGUAAAUGUCCGACUGGAGCCGUUCGGGCGGCUAUAAACAGACCUCAGGCCCGAAGCGUGGCGGCACCUGCCGCCGGUGGUAAAAAAGAUCGGAAGAGCACACGUCU [U7A U8C G9U U11G C12A] | 1.09
5 | GGGUCGACUUGCCAUAAUCGCGUGGAUAUGGCACGCAAGUUUCUACCGGGCACCGUAAAUGUCCGACUGGAGCCGUUCGGGCGGCUAUAAACAGACCUCAGGCCCGAAGCGUGGCGGCACCUGCCGCCGGUGGUAAAAAAGAUCGGAAGAGCACACGUCU [U7A U8C G9U U11G] | 1.29
6 | GGGUCGACUUCCCAUAAUCGCGUGGAUAUGGCACGCAAGUUUCUACCGGGCACCGUAAAUGUCCGACUGGAGCCGUUCGGGCGGCUAUAAACAGACCUCAGGCCCGAAGCGUGGCGGCACCUGCCGCCGGUGGUAAAAAAGAUCGGAAGAGCACACGUCU [U7A U8C G9U U11C] | 1.1
7 | GGGUCGACUUCGCAUAAUCGCGUGGAUAUGGCACGCAAGUUUCUACCGGGCACCGUAAAUGUCCGACUGGAGCCGUUCGGGCGGCUAUAAACAGACCUCAGGCCCGAAGCGUGGCGGCACCUGCCGCCGGUGGUAAAAAAGAUCGGAAGAGCACACGUCU [U7A U8C G9U U11C C12G] | 1.27
8 | GGGUCGACUUCACAUAAUCGCGUGGAUAUGGCACGCAAGUUUCUACCGGGCACCGUAAAUGUCCGACUGGAGCCGUUCGGGCGGCUAUAAACAGACCUCAGGCCCGAAGCGUGGCGGCACCUGCCGCCGGUGGUAAAAAAGAUCGGAAGAGCACACGUCU [U7A U8C G9U U11C C12A] | 1.28
9 | GGGUCGACUUCUCAUAAUCGCGUGGAUAUGGCACGCAAGUUUCUACCGGGCACCGUAAAUGUCCGACUGGAGCCGUUCGGGCGGCUAUAAACAGACCUCAGGCCCGAAGCGUGGCGGCACCUGCCGCCGGUGGUAAAAAAGAUCGGAAGAGCACACGUCU [U7A U8C G9U U11C C12U] | 1.15
10 | GGGUCGACUUACGAUAAUCGCGUGGAUAUGGCACGCAAGUUUCUACCGGGCACCGUAAAUGUCCGACUGGAGCCGUUCGGGCGGCUAUAAACAGACCUCAGGCCCGAAGCGUGGCGGCACCUGCCGCCGGUGGUAAAAAAGAUCGGAAGAGCACACGUCU [U7A U8C G9U U11A C13G] | 1.07
11 | GGGUCGACUUACAAUAAUCGCGUGGAUAUGGCACGCAAGUUUCUACCGGGCACCGUAAAUGUCCGACUGGAGCCGUUCGGGCGGCUAUAAACAGACCUCAGGCCCGAAGCGUGGCGGCACCUGCCGCCGGUGGUAAAAAAGAUCGGAAGAGCACACGUCU [U7A U8C G9U U11A C13A] | 1.13
12 | GGGUCGACUUACUAUAAUCGCGUGGAUAUGGCACGCAAGUUUCUACCGGGCACCGUAAAUGUCCGACUGGAGCCGUUCGGGCGGCUAUAAACAGACCUCAGGCCCGAAGCGUGGCGGCACCUGCCGCCGGUGGUAAAAAAGAUCGGAAGAGCACACGUCU [U7A U8C G9U U11A C13U] | 1.28
13 | GGGUCGACUUCCAAUAAUCGCGUGGAUAUGGCACGCAAGUUUCUACCGGGCACCGUAAAUGUCCGACUGGAGCCGUUCGGGCGGCUAUAAACAGACCUCAGGCCCGAAGCGUGGCGGCACCUGCCGCCGGUGGUAAAAAAGAUCGGAAGAGCACACGUCU [U7A U8C G9U U11C C13A] | 1.04
14 | GGGUCGACUUCCGAUAAUCGCGUGGAUAUGGCACGCAAGUUUCUACCGGGCACCGUAAAUGUCCGACUGGAGCCGUUCGGGCGGCUAUAAACAGACCUCAGGCCCGAAGCGUGGCGGCACCUGCCGCCGGUGGUAAAAAAGAUCGGAAGAGCACACGUCU [U7A U8C G9U U11C C13G] | 1.03
15 | GGGUCGACUUCCUAUAAUCGCGUGGAUAUGGCACGCAAGUUUCUACCGGGCACCGUAAAUGUCCGACUGGAGCCGUUCGGGCGGCUAUAAACAGACCUCAGGCCCGAAGCGUGGCGGCACCUGCCGCCGGUGGUAAAAAAGAUCGGAAGAGCACACGUCU [U7A U8C G9U U11C C13U] | 1.05
16 | GGGUCGACUUCUGAUAAUCGCGUGGAUAUGGCACGCAAGUUUCUACCGGGCACCGUAAAUGUCCGACUGGAGCCGUUCGGGCGGCUAUAAACAGACCUCAGGCCCGAAGCGUGGCGGCACCUGCCGCCGGUGGUAAAAAAGAUCGGAAGAGCACACGUCU [U7A U8C G9U U11C C12U C13G] | 1.04
17 | GGGUCGACUUCUUAUAAUCGCGUGGAUAUGGCACGCAAGUUUCUACCGGGCACCGUAAAUGUCCGACUGGAGCCGUUCGGGCGGCUAUAAACAGACCUCAGGCCCGAAGCGUGGCGGCACCUGCCGCCGGUGGUAAAAAAGAUCGGAAGAGCACACGUCU [U7A U8C G9U U11C C12U C13U] | 1.17
18 | GGGUCGACUUCUAAUAAUCGCGUGGAUAUGGCACGCAAGUUUCUACCGGGCACCGUAAAUGUCCGACUGGAGCCGUUCGGGCGGCUAUAAACAGACCUCAGGCCCGAAGCGUGGCGGCACCUGCCGCCGGUGGUAAAAAAGAUCGGAAGAGCACACGUCU [U7A U8C G9U U11C C12U C13A] | 1.12

Row | Variant | aptazyme ON/OFF ratio
19 | GGGUCGACUUGGUAUAAUCGCGUGGAUAUGGCACGCAAGUUUCUACCGGGCACCGUAAAUGUCCGACUGGAGCCGUUCGGGCGGCUAUAAACAGACCUCAGGCCCGAAGCGUGGCGGCACCUGCCGCCGGUGGUAAAAAAGAUCGGAAGAGCACACGUCU [U7A U8C G9U U11G C12G C13U] | 1.07
20 | GGGUCGACUUGGAAUAAUCGCGUGGAUAUGGCACGCAAGUUUCUACCGGGCACCGUAAAUGUCCGACUGGAGCCGUUCGGGCGGCUAUAAACAGACCUCAGGCCCGAAGCGUGGCGGCACCUGCCGCCGGUGGUAAAAAAGAUCGGAAGAGCACACGUCU [U7A U8C G9U U11G C12G C13A] | 1.22
21 | GGGUCGACUUGGGAUAAUCGCGUGGAUAUGGCACGCAAGUUUCUACCGGGCACCGUAAAUGUCCGACUGGAGCCGUUCGGGCGGCUAUAAACAGACCUCAGGCCCGAAGCGUGGCGGCACCUGCCGCCGGUGGUAAAAAAGAUCGGAAGAGCACACGUCU [U7A U8C G9U U11G C12G C13G] | 1.16
22 | GGGUCGACUUGAGAUAAUCGCGUGGAUAUGGCACGCAAGUUUCUACCGGGCACCGUAAAUGUCCGACUGGAGCCGUUCGGGCGGCUAUAAACAGACCUCAGGCCCGAAGCGUGGCGGCACCUGCCGCCGGUGGUAAAAAAGAUCGGAAGAGCACACGUCU [U7A U8C G9U U11G C12A C13G] | 1.27
23 | GGGUCGACUUGAUAUAAUCGCGUGGAUAUGGCACGCAAGUUUCUACCGGGCACCGUAAAUGUCCGACUGGAGCCGUUCGGGCGGCUAUAAACAGACCUCAGGCCCGAAGCGUGGCGGCACCUGCCGCCGGUGGUAAAAAAGAUCGGAAGAGCACACGUCU [U7A U8C G9U U11G C12A C13U] | 1.17
24 | GGGUCGACUUGAAAUAAUCGCGUGGAUAUGGCACGCAAGUUUCUACCGGGCACCGUAAAUGUCCGACUGGAGCCGUUCGGGCGGCUAUAAACAGACCUCAGGCCCGAAGCGUGGCGGCACCUGCCGCCGGUGGUAAAAAAGAUCGGAAGAGCACACGUCU [U7A U8C G9U U11G C12A C13A] | 1.22
25 | GGGUCGACUUCAGAUAAUCGCGUGGAUAUGGCACGCAAGUUUCUACCGGGCACCGUAAAUGUCCGACUGGAGCCGUUCGGGCGGCUAUAAACAGACCUCAGGCCCGAAGCGUGGCGGCACCUGCCGCCGGUGGUAAAAAAGAUCGGAAGAGCACACGUCU [U7A U8C G9U U11C C12A C13G] | 1.1
26 | GGGUCGACUUCAUAUAAUCGCGUGGAUAUGGCACGCAAGUUUCUACCGGGCACCGUAAAUGUCCGACUGGAGCCGUUCGGGCGGCUAUAAACAGACCUCAGGCCCGAAGCGUGGCGGCACCUGCCGCCGGUGGUAAAAAAGAUCGGAAGAGCACACGUCU [U7A U8C G9U U11C C12A C13U] | 1.2
27 | GGGUCGACUUCAAAUAAUCGCGUGGAUAUGGCACGCAAGUUUCUACCGGGCACCGUAAAUGUCCGACUGGAGCCGUUCGGGCGGCUAUAAACAGACCUCAGGCCCGAAGCGUGGCGGCACCUGCCGCCGGUGGUAAAAAAGAUCGGAAGAGCACACGUCU [U7A U8C G9U U11C C12A C13A] | 1.18
28 | GGGUCGACUUCGAAUAAUCGCGUGGAUAUGGCACGCAAGUUUCUACCGGGCACCGUAAAUGUCCGACUGGAGCCGUUCGGGCGGCUAUAAACAGACCUCAGGCCCGAAGCGUGGCGGCACCUGCCGCCGGUGGUAAAAAAGAUCGGAAGAGCACACGUCU [U7A U8C G9U U11C C12G C13A] | 1.13
29 | GGGUCGACUUCGGAUAAUCGCGUGGAUAUGGCACGCAAGUUUCUACCGGGCACCGUAAAUGUCCGACUGGAGCCGUUCGGGCGGCUAUAAACAGACCUCAGGCCCGAAGCGUGGCGGCACCUGCCGCCGGUGGUAAAAAAGAUCGGAAGAGCACACGUCU [U7A U8C G9U U11C C12G C13G] | 1.05
30 | GGGUCGACUUCGUAUAAUCGCGUGGAUAUGGCACGCAAGUUUCUACCGGGCACCGUAAAUGUCCGACUGGAGCCGUUCGGGCGGCUAUAAACAGACCUCAGGCCCGAAGCGUGGCGGCACCUGCCGCCGGUGGUAAAAAAGAUCGGAAGAGCACACGUCU [U7A U8C G9U U11C C12G C13U] | 1.18
31 | GGGUCGACUUAUGAUAAUCGCGUGGAUAUGGCACGCAAGUUUCUACCGGGCACCGUAAAUGUCCGACUGGAGCCGUUCGGGCGGCUAUAAACAGACCUCAGGCCCGAAGCGUGGCGGCACCUGCCGCCGGUGGUAAAAAAGAUCGGAAGAGCACACGUCU [U7A U8C G9U U11A C12U C13G] | 1.22
32 | GGGUCGACUUAUUAUAAUCGCGUGGAUAUGGCACGCAAGUUUCUACCGGGCACCGUAAAUGUCCGACUGGAGCCGUUCGGGCGGCUAUAAACAGACCUCAGGCCCGAAGCGUGGCGGCACCUGCCGCCGGUGGUAAAAAAGAUCGGAAGAGCACACGUCU [U7A U8C G9U U11A C12U C13U] | 1.16
33 | GGGUCGACUUAUAAUAAUCGCGUGGAUAUGGCACGCAAGUUUCUACCGGGCACCGUAAAUGUCCGACUGGAGCCGUUCGGGCGGCUAUAAACAGACCUCAGGCCCGAAGCGUGGCGGCACCUGCCGCCGGUGGUAAAAAAGAUCGGAAGAGCACACGUCU [U7A U8C G9U U11A C12U C13A] | 1.37
34 | GGGUCGACUUAGUAUAAUCGCGUGGAUAUGGCACGCAAGUUUCUACCGGGCACCGUAAAUGUCCGACUGGAGCCGUUCGGGCGGCUAUAAACAGACCUCAGGCCCGAAGCGUGGCGGCACCUGCCGCCGGUGGUAAAAAAGAUCGGAAGAGCACACGUCU [U7A U8C G9U U11A C12G C13U] | 1.2
35 | GGGUCGACUUAGAAUAAUCGCGUGGAUAUGGCACGCAAGUUUCUACCGGGCACCGUAAAUGUCCGACUGGAGCCGUUCGGGCGGCUAUAAACAGACCUCAGGCCCGAAGCGUGGCGGCACCUGCCGCCGGUGGUAAAAAAGAUCGGAAGAGCACACGUCU [U7A U8C G9U U11A C12G C13A] | 1.14
36 | GGGUCGACUUAGGAUAAUCGCGUGGAUAUGGCACGCAAGUUUCUACCGGGCACCGUAAAUGUCCGACUGGAGCCGUUCGGGCGGCUAUAAACAGACCUCAGGCCCGAAGCGUGGCGGCACCUGCCGCCGGUGGUAAAAAAGAUCGGAAGAGCACACGUCU [U7A U8C G9U U11A C12G C13G] | 1.22
